Measured values as given in article PMC4495402.

Molecular target: Xenopus histone H3/H4 tetramer (Xenopus), P84233
Assay: SEC-MALS
Conditions: remark: other sources report otherwise

| stoichiometry N | Binder |
| --- | --- |
| 1 | human Spt2 histone-binding domain 571–685 (hSpt2C), Q68D10 571-685 (domain or fragment) GPQRLPFPTGYKRQREYEEEDDDDDEYDSEMEDFIEDEGEPQEEISKHIREIFGYDRKKYKDESDYALRYMESSWKEQQKEEAKSLRLGMQEDLEEMRREEEEMQRRRAKKLKRR |
| 1 | SUMO-tagged hSpt2C(571–685), Q68D10 571-685 (domain or fragment) GPQRLPFPTGYKRQREYEEEDDDDDEYDSEMEDFIEDEGEPQEEISKHIREIFGYDRKKYKDESDYALRYMESSWKEQQKEEAKSLRLGMQEDLEEMRREEEEMQRRRAKKLKRR |
